{"source": "patent US20210340232A1", "about": "“MONOCLONAL ANTIBODIES AGAINST HUMAN DICKKOPF3 AND USES THEREOF” (Board of Regents, The University of Texas System, priority 2018, published 2021)", "molecules": {"B1": {"name": "JM6-6-1: monoclonal antibody against human DKK3; heavy chain variable SEQ ID NO: 19, light chain variable SEQ ID NO: 20 (antibody, V domains shown)", "VH": "EVKLVESGGGLVKPGGSLKLSCAASGFTFTIEYMAWIRQTPEKRLEWVASISSGGDDIYYADNVKGRFTISRDNAKNTLYLQMSSLKSEDTAIYYCSRSLSDWGQGTTLTVSSAKTTPPSDYPLA", "VL": "MTQTPLSLPVSLGDQASISCRSSQSILHSNGHTYLEWYLQKPGQSPKLLIYKVSNRFSGVPDRFSGSGSGTDFTLKISRVEAEDLGVYYCFQGSHVPFTFGSGTKLEIERADAAQ"}}, "key": {"[1]": {"system": "KPC/DKK3-/- model of PDAC", "experiment": "Survival of KPC/DKK3-/- mice (P48-Cre; Kras LSL-G12D;Trp53fl/fl; dkk3-/-)", "assay_type": "in vivo, mouse", "protocol": "HPSCs and BxPC3 cells were treated with DKK3 mAb clones JM6-6-1 and JM8-12-1 or isotype control mAb or PBS. (FIGS. 5A-B) HPSC apoptosis and migration as measured by FACS and Transwell migration assay at 48 hours. (FIG. 5C) BxPC3 migration in response to rhDKK3 10 μg/ml as measured by Transwell migration assay at 48 hours. (FIG. 5D) BxPC3 resistance to gemcitabine 100 μM as measured by MTS proliferation assay at 6 days. HPSC-CM, pancreatic stellate cell conditioned media, 10 μg/ml. The orthotopic co-injection BxPC3+ HPSC model of PDAC was used to test the efficacy of DKK3 mAb clones JM6-6-1 or JM8-12-1 (5 mg/kg i.p. once every 5 days). (FIG. 5E) Overall tumor progression was measured every 3-4 days by IVIS imaging. […]\nFIGS. 6A-F. DKK3 blockade is associated with increased tumor immune infiltrates and improves response to checkpoint inhibitor therapy. (FIG. 6A) T cells were stimulated, treated with DKK3 (5-10 μg/mL) and proliferation was measured by CFSE assay. In a syngeneic orthotopic model with luciferase-labeled KPC cells, tumors were examined for CD3 and CD8 expression by IHC (FIG. 6B) and additional markers of T cell activity were measured by quantitative PCR (FIG. 6C). Mice in this model were treated with either control IgG, DKK3 mAb JM6-6-1, αCTLA4 or the combination JM6-6-1+αCTLA4 and tumor growth was measured by IVIS imaging to 25 and 190 days (FIG. 6D). […]"}, "[2]": {"system": "BxPC3 + HPSC orthotopic tumors", "experiment": "Orthotopic co-injection BxPC3 + HPSC nude mouse model of PDAC", "assay_type": "in vivo", "settings": "5 mg/kg i.p. once every 5 days, vs PBS or control mAb", "protocol": "HPSCs and BxPC3 cells were treated with DKK3 mAb clones JM6-6-1 and JM8-12-1 or isotype control mAb or PBS. (FIGS. 5A-B) HPSC apoptosis and migration as measured by FACS and Transwell migration assay at 48 hours. (FIG. 5C) BxPC3 migration in response to rhDKK3 10 μg/ml as measured by Transwell migration assay at 48 hours. (FIG. 5D) BxPC3 resistance to gemcitabine 100 μM as measured by MTS proliferation assay at 6 days. HPSC-CM, pancreatic stellate cell conditioned media, 10 μg/ml. The orthotopic co-injection BxPC3+ HPSC model of PDAC was used to test the efficacy of DKK3 mAb clones JM6-6-1 or JM8-12-1 (5 mg/kg i.p. once every 5 days). (FIG. 5E) Overall tumor progression was measured every 3-4 days by IVIS imaging. (FIG. 5F) Metastatic tumors in the peritoneal cavity after removal of the primary pancreatic tumor are shown by IVIS imaging. (FIG. 5G) Kaplan Meier survival curve showing mice treated with DKK3 mAb clone JM8-12 (right-most line), control mAb (middle line), or PBS (left-most line). (FIG. 5H) KPC mice (P48-Cre; Kras LSL-G12D;Trp53fl/fl) with either wild type DKK3 (solid lines) or deficient in DKK3 (“DKK3-KO,” dashed lines) were treated with DKK3 mAb JM6-6-1 (5 mg/kg i.p. once every 5 days), PBS or control mAb. Kaplan Meier survival curve is shown with hazard ratios (Log-rank test). *p<0.05, **p<0.01, ***p<0.001, ****p<0.0001 vs. control Ab.\nAn orthotopic nude mouse model of PDAC using BxPC3 cancer cells labeled with firefly luciferase (BxPC3-FL) co-injected with HPSCs has been previously described (Hwang et al., 2008). Mice received intrapancreatic injections of BxPC3-FL (1×10^6 per mouse) with HPSC-shControl or HPSC-shDKK3 in a tumor-to-stroma ratio of 1:0 or 1:3 in 50-μL of HBSS and tumor growth was monitored using IVIS imaging (Hwang et al., 2008). In addition, a syngeneic immunocompetent DKK3 null model was used, provided by Dr. C. Niehrs (Barrantes Idel et al., 2006), that was injected with murine PDAC cells (termed “KPC cells”) isolated from tumors arising in a GEMM of PDAC (Pdx1-Cre; Kras^LSL-G12D;Trp53^R172H/+) (Hingorani et al., 2005; Hingorani et al., 2003) and labeled with luciferase.\nThe efficacy of DKK3 mAb was tested in vivo using the previously described orthotopic co-implantation nude mouse model of PDAC with human PSCs mixed with luciferase-labeled BxPC3 cancer cells (1:3 tumor:PSC ratio). Mice were treated with either phosphate-buffered saline (PBS), isotype control mAb, or DKK3 mAb (clone JM6-6-1; 5 mg/kg i.p. once every 5 days) and tumor growth was followed with IVIS imaging. […] Tumors in the PBS and control mAb groups grew rapidly from day 22 onward, with an 8-fold increase in the luciferase signal."}}}
{"molecule": "B1", "values": [{"measurement": "effect on survival compared to PBS or control mAb", "setting": "[1]", "value": "no effect on survival"}, {"measurement": "median survival", "setting": "[1]", "value": 58, "unit": "days"}, {"measurement": "tumor growth by IVIS imaging", "setting": "[2]; day 22 until day 33", "value": "significant inhibition in tumor growth"}, {"measurement": "lower volume of metastatic disease in peritoneal cavity by luciferase signal", "setting": "[2]", "value": 6.5, "unit": "fold"}]}
